Assay results reported in the Immune Epitope Database (IEDB).

Key:
Experiment in all cases: IEDB peptide-MHC binding, purified MHC/competitive/radioactivity; filed as Kd, often an IC50 or EC50 that approximates it; ≥ and ≤ were set here for values at or beyond the usual limits of such assays
[1] = target: HLA-A*02:02
[2] = target: HLA-A*02:06
[3] = target: HLA-A*02:03
[4] = target: HLA-A*03:01
[5] = target: HLA-A*33:01
[6] = target: HLA-A*31:01
[7] = target: HLA-A*68:01
[8] = target: HLA-A*11:01
[9] = source organism: Vaccinia virus WR
[10] = source organism: Dengue virus 4 Philippines/H241/1956
[11] = source organism: Dengue virus 1 Brazil/97-11/1997
[12] = source organism: Mammarenavirus guanaritoense
[13] = source organism: SARS coronavirus Tor2
[14] = source organism: Mammarenavirus lassaense

Sequence | Kd [1, 9] [nM] | Kd [2, 9] [nM] | Kd [3, 9] [nM] | further results
HILHAYCGI | 123 | 359 | 66.5 | 
NMWREILSNT | 6060 | 12000 | 56.1 | 
CTINVNSLA | 1040 | 248 | 1610 | 
YTVEFDRDKV | 82.6 | 22 | 154 | 
SIGFEARIV | 10100 | 1310 | 575 | 
ETDDDGNYPL | 3590 | 1160 | ≥ 28200 | 
GQIHLAIMAV |  |  |  | Kd [2, 10]: 1.33 nM
LLFMILTVAA |  |  |  | Kd [3, 11]: 468 nM
FLPQIGGEA | 21.1 | 95.8 | 121 | 
TLYAVATTVI |  |  |  | Kd [3, 11]: 195 nM
ETVKMGAFM | 15000 | ≥ 40400 | 7430 | 
AAVTLNRIKI | 830 | 1920 | 3490 | 
YCLDFLFDV |  |  |  | Kd [1, 12]: 17300 nM; Kd [2, 12]: ≥ 77000 nM; Kd [3, 12]: ≥ 78100 nM
VIPDELIDVL | 2490 | 298 | 4590 | 
PTWLGAAITL | 1360 | 1770 | 1010 | 
MLHNPTSET | 4210 | ≥ 77100 | 184 | 
QMAGVEVRYI | 0.208 | 44.8 | 0.138 | 
YTISSESLV | 522 | 53.6 | 37.6 | 
VQIENLEYTV |  |  |  | Kd [2, 10]: 4.4 nM
DMLLNVQTL | 7400 | 13400 | 5070 | 
TLNEDLLEI |  |  |  | Kd [1, 13]: 1.45 nM; Kd [2, 13]: 56.3 nM; Kd [3, 13]: 2.24 nM
QQFANVISKI | 51.5 | 863 | 1.7 | 
IISTDQDTML | 451 | 666 | 1810 | 
LLFLVLIMLI |  |  |  | Kd [1, 13]: 447 nM; Kd [2, 13]: 8300 nM; Kd [3, 13]: 3150 nM
LIYYQNEVT | 14000 | 8510 | 5210 | 
LLNETAKVI | 319 | 15400 | 71.4 | 
NTLIQYRQQL | 6370 | ≥ 20900 | 10100 | 

Sequence | Kd [1, 9] [nM] | Kd [2, 9] [nM] | Kd [3, 9] [nM] | further results
GLESIEQNLT | 7020 | ≥ 69800 | ≥ 61300 | 
KIDKLTFQI | 141 | 41.9 | 10600 | 
FIDRGSIKI | 9720 | 4030 | 12200 | 
TLLNETAKVI | 2860 | 8550 | 2130 | 
GLVSLLGSA |  |  |  | Kd [3, 10]: 4.12 nM
NVKSKLLWFL | 2290 | ≥ 31000 | 633 | 
IIAVFDSKLI | 758 | 8510 | 595 | 
RLRQDTEDI | 230 | 4580 | 387 | 
TLLIKTLSPA | 1.05 | 0.728 | 1.17 | 
MAEFEDQLV | 165 | 5510 | 641 | 
SIISLFYTFA | 111 | 93.6 | 28.1 | 
HINDQKFDDV | 5860 | 1190 | 1160 | 
VIRNEVNDT | 19900 | ≥ 77100 | 820 | 
DVNEEYTEAA | ≥ 46300 | ≥ 59200 | ≥ 28800 | 
NIVASVNMV |  |  |  | Kd ([3]; source organism: Dengue virus 3 Martinique/1243/1999): 82.9 nM
IVSRSSRGV | 264 | 476 | 13200 | 
RAGYSIVEL | 4940 | 5070 | 5390 | 
ITGNKVKTEL | ≥ 70000 | ≥ 69800 | ≥ 70400 | 
YMSNLFDIPL | 19.2 | 127 | 10.2 | 
KVIGLYGNGV |  |  |  | Kd [2, 10]: 12.3 nM
LLMLVTPSMA |  |  |  | Kd [3, 11]: 23.6 nM
SLQVCVQTVR |  |  |  | Kd [4, 13]: 13300 nM; Kd [5, 13]: 5110 nM; Kd [6, 13]: 470 nM; Kd [7, 13]: 5790 nM; Kd [8, 13]: 7030 nM
LTSMKYFVK |  |  |  | Kd [4, 13]: 223 nM; Kd [5, 13]: 939 nM; Kd [6, 13]: 74.9 nM; Kd [7, 13]: 234 nM; Kd [8, 13]: 19.9 nM
HVCNATDFWR |  |  |  | Kd [4, 9]: 6760 nM; Kd [5, 9]: 383 nM; Kd [6, 9]: 8.14 nM; Kd [7, 9]: 37.9 nM; Kd [8, 9]: 450 nM
ENAVWDQCK |  |  |  | Kd [4, 14]: ≥ 78000 nM; Kd [5, 14]: ≥ 38000 nM; Kd [6, 14]: ≥ 77900 nM; Kd [7, 14]: 1480 nM; Kd [8, 14]: ≥ 77900 nM
ETNIGCAVNT | ≥ 70000 | ≥ 69800 | ≥ 37000 | 
GIDTSNNIA | ≥ 49700 | ≥ 25200 | ≥ 71400 | 
